Source: the PETadex activity labels (doi:10.1021/bi00096a018)
Substitutions are numbered along the chain they refer to.

B1: unnamed (protein)
chain: MRPPWYPLHTPSLAFPLLFLLLSLLGGGARAEGREDPQLLVRVRGGQLRGIRLKAPGGPVSAFLGIPFAEPPVGSRRFMPPEPKRPWSGVLDATTFQNVCYQNVNTLYPGFEGTEMWNPNRELSEDCLYLNVWTPYPRPASPTPVLIWIYGGGFQSGAASLDVYDGRFLAQVEGAVLVSMNYRVGTFGFLALPGSREAPGNVGLLDQRLALQWVQENIAAFGGDPMSVTLFGESAGAASVGMHILSLPSRSLFHRAVLQSGTPNGPWATVSAGEARRRATLLARLVGCPPGGAGGNDTELIACLRTRPAQDLVDHERHVLPQESIFRFSFVPVVDGDFLSDTPEALINTGDFQDLQVLVGVVKDEGSYFLVYGVPGFSKDNESLISRAQFLAGVRIGVPQASDLAAEAVVLHYTDWLHPEDPTHLRDAMSAVVGDHNVVCPVAQLAGRLAAQGARVYAYIFEHRASTLTWPLWMGVPHGYEIEFIFGLPLDPSLNYTTEERIFAQRLMKYWTNFARTGDPNDPRDSKSPQWPPYTTAAQQYVSLNLKPLEVRRGLRAQTCAFWNRFLPKLLSATDTLDEAERQWKAEFHRWSSYMVHWKNQFDHYSKQERCSDL
B2: unnamed (protein)
chain: B1 chain with N103Y, N105D, Q155Y, R317W, F369G
B3: unnamed (protein)
chain: B1 chain with N103Y, N105D, Q155Y
B4: unnamed (protein)
chain: B1 chain with N103Q, N105D, Q155Y
B5: unnamed (protein)
chain: B1 chain with N105D, Q155Y, R317W
B6: unnamed (protein)
chain: B1 chain with N103Y, N105D, Q155Y, R317W, Y368F
B7: unnamed (protein)
chain: B1 chain with N103Y, N105D, Q155Y, R317W, F328Y
B8: unnamed (protein)
chain: B1 chain with N103Y, N105D, Q155Y, R317W, V331G
B9: unnamed (protein)
chain: B1 chain with N103Y, N105D, Q155Y, R317W, F326L

substrate: Acetylcholine; conditions: pH 7; 22 °C

Row | Protein | Km [µM] | kcat [s⁻¹]
1 | B1 | 6100 | 2330
2 | B2 | 75 | 383
3 | B3 | 420 | 2670
4 | B4 | 700 | 2670
5 | B5 | 110 | 2170
6 | B6 | 53 | 1130
7 | B7 | 58 | 650
8 | B8 | 50 | 2670
9 | B9 | 49 | 733
